Data reported in patent US20160159924A1 (Novo Nordisk, published 2016).
Positions count from the first letter of the chain named.

B1: rec0266-0000-0010-VL_N90K (antibody, mouse IgG1, name in Kabat numbering, V domains shown)
VH: DVKLVESGGGLVKPGGSLKLSCVASGFTFSSYTMSWVRQTPEKRLEWVATISGGGSHIYYADSVKGRFTISRDNAKNTLYLQMSSLKSEDTAIYYCTRDGRDGSWFAYWGQGTLVTVSA
VL: DIVMTQSPATLSVTPGDRVSLSCRTSQSIGDYLHWYQQKSHESPRLLIKYVSQSISGIPSRFSGSGSGSDFTLSINSVESEDVGVYYCQKSHSFPLTFGSGTKLELKR
B2: rec0266-0000-0010-VL_N90I (antibody, mouse IgG1, name in Kabat numbering, V domains shown)
VH: B1 VH
VL: B1 VL with K90I
B3: rec0266-0000-0010-VL_N90Q (antibody, mouse IgG1, name in Kabat numbering, V domains shown)
VH: B1 VH
VL: B1 VL with K90Q
B4: rec0266-0000-0010-VL_N90V (antibody, mouse IgG1, name in Kabat numbering, V domains shown)
VH: B1 VH
VL: B1 VL with K90V
B5: rec0266-0000-0010-VL_N90G (antibody, mouse IgG1, name in Kabat numbering, V domains shown)
VH: B1 VH
VL: B1 VL with K90G
B6: rec0266-0000-0010-VL_N90T (antibody, mouse IgG1, name in Kabat numbering, V domains shown)
VH: B1 VH
VL: B1 VL with K90T
B7: rec0266-0000-0010-VL_S91E (antibody, mouse IgG1, name in Kabat numbering, V domains shown)
VH: B1 VH
VL: B1 VL with K90N, S91E
B8: rec0266-0000-0010-VL_N90L (antibody, mouse IgG1, name in Kabat numbering, V domains shown)
VH: B1 VH
VL: B1 VL with K90L
B9: rec0266-0000-0010-VL_N90Y (antibody, mouse IgG1, name in Kabat numbering, V domains shown)
VH: B1 VH
VL: B1 VL with K90Y
B10: rec0266-0000-0010-VL_N90F (antibody, mouse IgG1, name in Kabat numbering, V domains shown)
VH: B1 VH
VL: B1 VL with K90F
B11: rec0266-0000-0010-VL_S91A (antibody, mouse IgG1, name in Kabat numbering, V domains shown)
VH: B1 VH
VL: B1 VL with K90N, S91A
B12: rec0266-0000-0010-VL_N90H (antibody, mouse IgG1, name in Kabat numbering, V domains shown)
VH: B1 VH
VL: B1 VL with K90H
B13: rec0266-0000-0010-VL_N90R (antibody, mouse IgG1, name in Kabat numbering, V domains shown)
VH: B1 VH
VL: B1 VL with K90R
B14: rec0266-0000-0010-VL_N90E (antibody, mouse IgG1, name in Kabat numbering, V domains shown)
VH: B1 VH
VL: B1 VL with K90E
B15: rec0266-0000-0010-VL_S91D (antibody, mouse IgG1, name in Kabat numbering, V domains shown)
VH: B1 VH
VL: B1 VL with K90N, S91D
B16: rec0266-0000-0010-VL_N90P (antibody, mouse IgG1, name in Kabat numbering, V domains shown)
VH: B1 VH
VL: B1 VL with K90P
B17: rec0266-0000-0010-VL_N90S (antibody, mouse IgG1, name in Kabat numbering, V domains shown)
VH: B1 VH
VL: B1 VL with K90S
B18: rec0266-0000-0010-VH_G96I (antibody, mouse IgG1, V domains shown)
VH: B1 VH with G100I
VL: B1 VL with K90N
B19: rec0266-0000-0010-VH_G99Y (antibody, mouse IgG1, V domains shown)
VH: B1 VH with G103Y
VL: B1 VL with K90N
B20: rec0266-0000-0010-VH_G96T (antibody, mouse IgG1, V domains shown)
VH: B1 VH with G100T
VL: B1 VL with K90N
B21: rec0266-0000-0010-VH_G99V (antibody, mouse IgG1, V domains shown)
VH: B1 VH with G103V
VL: B1 VL with K90N
B22: rec0266-0000-0010-VH_G99P (antibody, mouse IgG1, V domains shown)
VH: B1 VH with G103P
VL: B1 VL with K90N
B23: rec0266-0000-0010-VH_G99S (antibody, mouse IgG1, V domains shown)
VH: B1 VH with G103S
VL: B1 VL with K90N
B24: rec0266-0000-0010-VH_G96Y (antibody, mouse IgG1, V domains shown)
VH: B1 VH with G100Y
VL: B1 VL with K90N
B25: rec0266-0000-0010-VH_G99H (antibody, mouse IgG1, V domains shown)
VH: B1 VH with G103H
VL: B1 VL with K90N
B26: rec0266-0000-0010-VH_G96N (antibody, mouse IgG1, V domains shown)
VH: B1 VH with G100N
VL: B1 VL with K90N
B27: rec0266-0000-0010-VH_G99A (antibody, mouse IgG1, V domains shown)
VH: B1 VH with G103A
VL: B1 VL with K90N
B28: rec0266-0000-0010-VH_G99R (antibody, mouse IgG1, V domains shown)
VH: B1 VH with G103R
VL: B1 VL with K90N
B29: rec0266-0000-0010-VH_G99L (antibody, mouse IgG1, V domains shown)
VH: B1 VH with G103L
VL: B1 VL with K90N
B30: rec0266-0000-0010-VH_G96K (antibody, mouse IgG1, V domains shown)
VH: B1 VH with G100K
VL: B1 VL with K90N
B31: rec0266-0000-0010-VH_G99I (antibody, mouse IgG1, V domains shown)
VH: B1 VH with G103I
VL: B1 VL with K90N
B32: rec0266-0000-0010-VH_G96R (antibody, mouse IgG1, V domains shown)
VH: B1 VH with G100R
VL: B1 VL with K90N
B33: rec0266-0000-0010-VH_G99T (antibody, mouse IgG1, V domains shown)
VH: B1 VH with G103T
VL: B1 VL with K90N
B34: rec0266-0000-0010-VH_G99N (antibody, mouse IgG1, V domains shown)
VH: B1 VH with G103N
VL: B1 VL with K90N
B35: rec0266-0000-0010-VH_G96V (antibody, mouse IgG1, V domains shown)
VH: B1 VH with G100V
VL: B1 VL with K90N
B36: rec0266-0000-0010-VH_G99K (antibody, mouse IgG1, V domains shown)
VH: B1 VH with G103K
VL: B1 VL with K90N
B37: rec0266-0000-0010-VH_G99E (antibody, mouse IgG1, V domains shown)
VH: B1 VH with G103E
VL: B1 VL with K90N
B38: rec0266-0000-0010-VH_G96S (antibody, mouse IgG1, V domains shown)
VH: B1 VH with G100S
VL: B1 VL with K90N
B39: rec0266-0000-0010-VH_G96L (antibody, mouse IgG1, V domains shown)
VH: B1 VH with G100L
VL: B1 VL with K90N
B40: rec0266-0000-0010-VH_G99F (antibody, mouse IgG1, V domains shown)
VH: B1 VH with G103F
VL: B1 VL with K90N
B41: rec0266-0000-0010-VH_G96P (antibody, mouse IgG1, V domains shown)
VH: B1 VH with G100P
VL: B1 VL with K90N

target: T1, recombinant human sc-uPA (human, UniProt P00749 21-431); assay: SPR, mAb immobilised
T1 construct: 411 amino acid single-chain zymogen expressed in HEK293; the 20-residue signal peptide is not present in the mature protein; also called human single-chain uPA; pro-uPA
Description: The binding affinity to recombinant human sc-uPA protein (SEQ ID […]) was measured by surface plasmon resonance (SPR).
(§1) The experiments were performed on a Biacore™ instrument (GE Healthcare) and analysed with the BIAcore 4000 Evaluation Software. Anti-human uPA mAb variants were directly immobilized at 150-600 RU on flow cells of a CM5 sensor chip (GE Healthcare; cat. # BR-1000-12) via amine coupling, respectively. Recombinant human sc-uPA was diluted in HBS-N (GE Healthcare Cat BR-1006-70) with 1% BSA buffer with a dilution factor 3× ranging 1000-0.13 nM. Recombinant human sc-uPA was injected for 60 s, followed by a 600 s dissociation phase. Binding curves were measured at 25° C. with a flow rate of 30 μL/min. Regeneration of the chip surface was performed with pH1.5 Glycine for 25 s at 30 μl/min. Determination of the kinetic parameters was performed by fitting with a 1:1 binding model. Binding affinities were calculated and are stated in Table 20 below.

For B1, which Kd is on record?
Its Kd is 1.1 nM.

For B2, which Kd is on record?
Its Kd is 0.62 nM.

B3 was tested. Which Kd did it give?
The Kd was 0.32 nM.

How did the Kd turn out when B4 was run?
Its Kd is 0.58 nM.

Which Kd does the source give for B5 here?
The Kd was 0.68 nM.

For B6, which Kd is on record?
Its Kd is 0.48 nM.

Which Kd does the source give for B7 here?
The Kd was 10 nM.

How did the Kd turn out when B8 was run?
The Kd was 0.61 nM.

B9 was tested. Which Kd did it give?
The Kd was 0.8 nM.

For B10, which Kd is on record?
Its Kd is 0.79 nM.

With B11 as the binder, how does the Kd read?
Its Kd is 1.3 nM.

With B12 as the binder, how does the Kd read?
Its Kd is 0.4 nM.

With B13 as the binder, how does the Kd read?
The Kd was 1.9 nM.

Which Kd does the source give for B14 here?
Its Kd is 0.43 nM.

How did the Kd turn out when B15 was run?
Its Kd is 2.1 nM.

For B16, which Kd is on record?
Its Kd is 0.62 nM.

B17 was tested. Which Kd did it give?
The Kd was 0.38 nM.

target: T1, recombinant human sc-uPA; assay: SPR, mAb immobilised; remark: another data set of the same source
Description: The binding affinity to recombinant human sc-uPA protein (SEQ ID NO:1) was measured by surface plasmon resonance (SPR).
as §1, with “17” for “20”

With B18 as the binder, how does the Kd read?
The Kd was 1.8 nM.

With B19 as the binder, how does the Kd read?
The Kd was 1.8 nM.

B20 was tested. Which Kd did it give?
Its Kd is 3 nM.

For B21, which Kd is on record?
Its Kd is 2.5 nM.

For B22, which Kd is on record?
Its Kd is 2.5 nM.

B23 was tested. Which Kd did it give?
Its Kd is 0.41 nM.

How did the Kd turn out when B24 was run?
Its Kd is 13 nM.

For B25, which Kd is on record?
The Kd was 27 nM.

For B26, which Kd is on record?
The Kd was 21 nM.

B27 was tested. Which Kd did it give?
Its Kd is 2.4 nM.

B28 was tested. Which Kd did it give?
The Kd was 15 nM.

How did the Kd turn out when B29 was run?
Its Kd is 2.1 nM.

Which Kd does the source give for B30 here?
The Kd was 0.95 nM.

Which Kd does the source give for B31 here?
Its Kd is 4.6 nM.

B32 was tested. Which Kd did it give?
The Kd was 3 nM.

Which Kd does the source give for B33 here?
The Kd was 5.4 nM.

Which Kd does the source give for B34 here?
Its Kd is 18 nM.

B35 was tested. Which Kd did it give?
Its Kd is 2.1 nM.

With B36 as the binder, how does the Kd read?
Its Kd is 4.8 nM.

B37 was tested. Which Kd did it give?
Its Kd is 1.4 nM.

B38 was tested. Which Kd did it give?
Its Kd is 1.3 nM.

B39 was tested. Which Kd did it give?
The Kd was 1.9 nM.

Which Kd does the source give for B40 here?
The Kd was 1.7 nM.

Which Kd does the source give for B41 here?
Its Kd is 2.1 nM.
